Laboratory results as given in patent US7109299.
Bridge positions count the residues as written; N and C are the ends. Ends that are not written are not given here.

Experiments:
[1] = target: T1, IL-5RαECD, extracellular domain (ECD) of the human IL-5 receptor α chain, soluble (human) (UniProt Q01344); experiment: scintillation proximity competition assay, dimer against 20 pM [125I] IL-5 on IL-5Rα coated beads
T1 sequence (Q01344 whole entry, looked up): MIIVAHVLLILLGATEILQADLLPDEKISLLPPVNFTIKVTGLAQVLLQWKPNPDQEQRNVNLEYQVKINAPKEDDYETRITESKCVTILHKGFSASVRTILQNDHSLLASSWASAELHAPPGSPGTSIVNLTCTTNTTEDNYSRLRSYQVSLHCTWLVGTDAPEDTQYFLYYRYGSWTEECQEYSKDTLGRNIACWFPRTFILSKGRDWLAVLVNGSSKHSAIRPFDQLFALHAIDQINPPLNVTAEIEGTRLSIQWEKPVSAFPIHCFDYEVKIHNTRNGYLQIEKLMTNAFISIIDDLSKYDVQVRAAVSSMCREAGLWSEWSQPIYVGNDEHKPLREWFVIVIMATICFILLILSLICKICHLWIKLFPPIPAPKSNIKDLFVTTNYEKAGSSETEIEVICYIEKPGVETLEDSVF

[2] = target: T1, IL-5RαECD, extracellular domain (ECD) of the human IL-5 receptor α chain, soluble (human); experiment: competition with [125I] IL-5 for binding to immobilised IL-5Rα ECD; peptide after 10 days, disulfide-linked dimer

B1: dimer of (H)-…-(NH2) (peptide)
peptide: H-EGYVCVEFARCPTCR-NH2
modifications: disulfide (positions not given here); also: dimer, intramolecular and intermolecular disulfides, places not given here
[1]
  SPA pIC50: 6.4

B2: dimer of (H)-…-(NH2) (peptide)
peptide: H-EGYVCVEWARCPTCR-NH2
modifications: disulfide (positions not given here); also: dimer, intramolecular and intermolecular disulfide linkages, places not given here
[1]
  SPA pIC50: 8.1

B3: dimeric form of AF17362 (spontaneously formed disulfide-linked dimer) (peptide)
peptide: TGGGDGYVCVEWARCPTCK
modifications: disulfide 15-18; also: homodimer linked by a Cys9-Cys9 interchain disulfide, disulfide at 9, other end not in the chain
[2]
  IC50: 550 pM
